Laboratory results published in patent US20130130985A1.

Key:
[1] = target: human vasopressin V1a receptor (human) (UniProt P37288); test: cell-based or functional assay
[2] = target: human oxytocin receptor (human) (UniProt P30559); test: cell-based or functional assay
[3] = target: human oxytocin receptor (human) (UniProt P30559); test: radioligand displacement (3H-OT), SPA beads, COS-1 membranes
[4] = target: human vasopressin V2 receptor (human) (UniProt P30518); test: radioligand displacement (3H-AVP), filtration, HEK293 membranes
[5] = target: human vasopressin V1b receptor (human) (UniProt P47901); test: radioligand displacement (3H-AVP), WGA SPA beads, COS-1 membranes
[6] = target: human vasopressin V1b receptor (human) (UniProt P47901); test: cell-based or functional assay
[7] = target: human vasopressin V1a receptor (human) (UniProt P37288); test: radioligand displacement (125I-V1a linear antagonist), SPA beads, COS-1 membranes

Sequence of human vasopressin V1a receptor (human) (P37288 whole entry): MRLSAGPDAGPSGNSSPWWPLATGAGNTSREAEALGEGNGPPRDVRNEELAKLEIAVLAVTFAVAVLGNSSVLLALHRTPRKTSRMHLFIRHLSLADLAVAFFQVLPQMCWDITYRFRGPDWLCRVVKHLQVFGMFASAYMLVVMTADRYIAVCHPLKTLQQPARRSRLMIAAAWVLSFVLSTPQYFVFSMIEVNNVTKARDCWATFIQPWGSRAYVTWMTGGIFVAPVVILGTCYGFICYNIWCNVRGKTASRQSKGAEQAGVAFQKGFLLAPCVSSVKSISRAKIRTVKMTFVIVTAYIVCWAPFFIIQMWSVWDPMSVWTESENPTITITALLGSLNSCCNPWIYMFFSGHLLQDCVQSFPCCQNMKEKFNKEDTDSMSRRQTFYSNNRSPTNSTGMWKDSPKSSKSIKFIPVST
Sequence of human oxytocin receptor (human) (P30559 whole entry): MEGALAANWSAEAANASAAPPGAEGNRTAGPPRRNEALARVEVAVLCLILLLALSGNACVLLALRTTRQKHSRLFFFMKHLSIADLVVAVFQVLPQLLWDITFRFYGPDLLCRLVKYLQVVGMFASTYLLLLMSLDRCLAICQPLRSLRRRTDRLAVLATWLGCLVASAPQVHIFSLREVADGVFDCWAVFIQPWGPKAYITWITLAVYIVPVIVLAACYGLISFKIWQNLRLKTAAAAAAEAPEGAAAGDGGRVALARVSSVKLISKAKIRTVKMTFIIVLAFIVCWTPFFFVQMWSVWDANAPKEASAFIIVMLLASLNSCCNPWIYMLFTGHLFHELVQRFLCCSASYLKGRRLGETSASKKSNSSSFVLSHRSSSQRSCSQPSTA
Sequence of human vasopressin V1b receptor (human) (P47901 whole entry): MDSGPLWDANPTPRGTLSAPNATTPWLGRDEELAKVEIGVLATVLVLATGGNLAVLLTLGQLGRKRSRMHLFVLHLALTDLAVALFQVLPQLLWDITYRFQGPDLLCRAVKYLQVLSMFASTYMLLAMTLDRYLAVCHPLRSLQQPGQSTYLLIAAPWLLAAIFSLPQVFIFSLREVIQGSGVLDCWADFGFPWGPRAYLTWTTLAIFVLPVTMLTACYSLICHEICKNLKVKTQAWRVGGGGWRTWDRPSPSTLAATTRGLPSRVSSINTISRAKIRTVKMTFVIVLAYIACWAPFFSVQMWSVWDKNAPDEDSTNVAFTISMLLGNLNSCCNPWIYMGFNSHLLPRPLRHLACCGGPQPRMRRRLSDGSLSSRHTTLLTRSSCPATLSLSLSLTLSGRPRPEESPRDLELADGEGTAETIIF

dOT (peptide) was tested, and the EC50, FLIPR calcium assay [1] was 46.1 nM, the Emax, FLIPR calcium assay [1] was 54% and the EC50, FLIPR calcium assay [2] was 0.39 nM. For the same substance, the EC50, IP-One HTRF assay [2] was 0.71 nM, the Emax, FLIPR calcium assay [2] was 89% and the Emax, IP-One HTRF assay [2] was 100%. The IC50 [3] was 1.7 nM.

In the case of [C1,6U]-OT (peptide), the IC50 [4] is reported as 3.35 µM, the IC50 [5] is reported as 1760 nM and the EC50, FLIPR calcium assay [6] is reported as 7.75 nM. The EC50, IP-One HTRF assay [6] was 510 nM, the Emax, FLIPR calcium assay [6] was 82% and the Emax, IP-One HTRF assay [6] was 103%. It also gave an EC50, FLIPR calcium assay [1] of 35.9 nM, an EC50, IP-One HTRF assay [1] of 269 nM and an Emax, FLIPR calcium assay [1] of 100%. The Emax, IP-One HTRF assay [1] was 70%, the EC50, FLIPR calcium assay [2] was 1.39 nM and the EC50, IP-One HTRF assay [2] was 18 nM. The Emax, FLIPR calcium assay [2] was 86%, the Emax, IP-One HTRF assay [2] was 94% and the IC50 [7] was 127 nM. It also gave an IC50 [3] of 538 nM.

With [CH2-S]-OT (peptide) the Emax, IP-One HTRF assay [1] was 75% and the Emax, IP-One HTRF assay [2] was 64%.

[C1,6U]-OT-OH (peptide) was tested, and the EC50, FLIPR calcium assay [6] was 2460 nM, the EC50, IP-One HTRF assay [6] was > 100000 nM and the Emax, FLIPR calcium assay [6] was 63%.

With [Te-Te]-Oxytocin (peptide) the EC50, FLIPR calcium assay [1] was 4280 nM, the EC50, IP-One HTRF assay [1] was > 10000 nM and the EC50, FLIPR calcium assay [2] was 11.3 nM. It also gave an EC50, IP-One HTRF assay [2] of 13.3 nM, an Emax, FLIPR calcium assay [2] of 86% and an Emax, IP-One HTRF assay [2] of 98%. The IC50 [3] was 8 nM.
